Reference: US20170306013A1 (KYMAB, published 2017)

T1: KP1.2 peptide of the D2E2 loop of the Nav1.7 channel (human, not fully specified)
T1 construct: also called human NAV1.7 peptide
T1 peptide: H-VELFLADVEGC-NH2


Target: T1, KP1.2 peptide of the D2E2 loop of the …
Assay: DELFIA: KP1.2 peptide on streptavidin plate, purified antibody undiluted, Eu-labelled anti-human IgG, time-resolved fluorescence at 615 nm
Procedure: Four mice were immunised substantially as detailed in Table 6. The immunisations of Boost 6 each used 3 μg of KP1.2-KLH and 3 μg KP5.1-KLH, adjuvanted with IFA, CpG and Alum as set out in Table 6. A seventh booster immunisation was added, which consisted of 2 μg of KP1.2-KLH and 2 μg KP5.1-KLH, adjuvanted with IFA, CpG and Alum as set out in Table 6. Antibodies were isolated from these mice. 17 antibodies were identified using B-cell cloning technique as described above with labelled KP1.2 peptide (SEQ ID No:10). These 17 antibodies were further tested for binding to human NAV1.7 peptide using a DELFIA assay.
Streptavidin Even Coat 96 well plates (R&D Systems) were coated with 50 μL of 4 μg/ml KP1.2 peptide (SEQ ID No:10, synthesised by Mimotopes) diluted in 1×PBS (Sigma) for 1 hr at room temperature (RT). Plates were then washed 3× with 1×PBS+0.1% tween (200 μL/well). Plates were blocked with 200 μL PBS+1% BSA (Sigma) for 1 hr at RT. Plates were then washed again 3× with 1×PBS+0.1% tween (Sigma) (200 μL/well). Purified antibodies were then added non-diluted to washed plate and incubated for 1 hr at RT (50 μL/well). Plates were then washed 3× with 1×PBS+0.1% tween (200 μL/well). 50 μL/well of Dissociation-Enhanced Lanthanide Fluorescent Immunoassay (DELFIA) Europium-labelled Anti-Human IgG antibody (Perkin Elmer) diluted 1:500 in DELFIA assay buffer (Perkin Elmer) for 1 hr at RT. Plates were then washed 3× with DELFIA wash buffer (Perkin Elmer) (200 μL/well). 50 μL/well of DELFIA Enhancement Solution (Perkin Elmer, warmed to RT before use) was added to each well and incubated for 5 min at RT on shaker (Heidolph Titramax). […] Values were plotted using Prism (Graph Pad Prism).

Row | binding result | Binder
1 | binds | 25C01 (antibody, V domains shown, Detected with anti-human IgG) VH: EVHLVESGGGLVQPGGSLRLSCSASRFTFSTSAMTWVRQAPGKGLEWVSVISASGTTTYYGDSVKGRFTISRDNSKNTLHLQMNSLRAEDTAVYYCAKGGLAVPGPNYWGQGTLVTVSS VL: DVVMTQSPLSLPVTLGQPASISCRSSQSLVFSDGNTYLTWFQQRPGQSPRRLIYKVSDRDSGVPDRFSGSGSGTDFTLQISRVEAEDVGLYYCMQGSHWPLTFGGGTKVEIK
2 | binds | 22G09 (antibody, V domains shown, Detected with anti-human IgG) VH: QVQLVQSGAEVRKPGASVKVSCKASGYTFTDYAIHWVRQAPGQRLEWMGWIIVGNGKTRYSQKFQGRVTITWETSATTAYMDLSSLRSEDTAVYYCARGFTMVRGAPYYDGMDVWGQGTTVTVSS VL: DIVMTQSPLSLPVTPGEPASISCRSSQSLLYTTGYNYLDWYLQKPGLSPQLLIYLGSYRASGVPDRFTGSGSGTDFTLKISRVEAEDVGVYYCMQALQAPTFGGGTKLEIK
3 | binds | 35E11 (antibody, V domains shown) VH: QVQLVQSGAEVRKPGASVKVSCKASGYTFTDYAIHWVRQAPGQRLEWMGWIIVGNGKTRYAQKLQGRVTITWETSASTAYMDLTSLRSEDTAVYYCARGFTMVRGAPYYDGLDVWGQGTTVTVSS VL: DIVMTQSPLSLPVTPGEPASISCRSSQSLLYSTGYNYLDWYLQKPGLSPHLLIYLGSNRASGVPDRFSGSGSGTDFTLKISRVEAEDVGVYYCMQALQTPTFGGGTKVEIK
4 | binds | 32B04 (antibody, V domains shown, Detected with anti-human IgG; also called 32604) VH: QVQFVQSGAEVRKPGASVKVSCKASGYTFTDYAIHWVRQAPGQRLEWMGWIIVGNGKTRYSQKFQGRLTITWETSATTAYMDLSSLRSEDTAVYYCARGFTMVRGAPYYDGMDVWGQGTTVTVSS VL: DIVMTQSPLSLPVTPGEPASISCRSSQSLLYTTGYNYLDWYLQKPGLSPQLLIYLGSYRASGVPDRFTGSGSGTDFTLKISRVEAEDVGVYYCMQALQAPTFGGGTKLEIK
5 | binds | 35A06 (antibody, V domains shown, Detected with anti-human IgG) VH: QVQLVQSGAEVRKPGASVKVSCKASGYTFTDYALHWVRQAPGQRLEWMGWIIVGNGKTRYAQKFQGRVTITWETSASTAFMDLSSLRSEDTAVYYCARGFTMVRGAPYYDGLDVWGQGTTVTVSS VL: DIVMTQSPLSLPVTPGEPASISCRSSQSLLYSTGYNYLDWYLQKPGLSPQLLIYLGSNRASGVPDRFSGSGSGTDFTLKISRVEAEDVGVYYCMQALQTPTFGGGTKVEIK
6 | binds | 28C11 (antibody, V domains shown, Detected with anti-human IgG) VH: QVQLVQSGAEVRKPGASVKVSCKASGYTFTDYAIHWVRQAPGQRLEWMGWIIVGNGKTRYAQKFQGRVTITWETSASTAYMDLSSLRSEDTAVYYCARGFTMVRGAPYYDGLDVWGQGTTVTVSS VL: DIVMTQSPLSLPVTPGEPASISCRSSQSLLFSTGYNYLDWYLQKPGLSPQLLIYLGSNRASGVPDRFSGSGSGTDFTLKISRVEAEDVGVYYCMQALQTPTFGGGTKVEIK
7 | binds | 28B08 (antibody, V domains shown, Detected with anti-human IgG; also called 28608) VH: QVQLVQSGAEVRKPGASVKVSCKASGYTFTDYALHWVRQAPGQRLEWMGWIIVGNGKTRYAQKFQGRVTITWETSASTAFVDLNSLRSEDTAVYYCARGFTMVRGAPYYDGLDVWGQGTTVTVSS VL: DIVMTQSPLSLSVTPGEPASISCRSSQSLLYSTGYNYLDWYLQKPGLSPQLLIYLGSNRASGVPDRFSGSGSGTDFTLKISRVEAEDVGFYYCMQALQAPTFGGGTKVEIK
8 | binds | 32D04 (antibody, V domains shown, Detected with anti-human IgG) VH: QVQLVQSGPEVRNPGASVRVSCKASGYTFTDYALHWVRQAPGQRLEWMGWIIVGNGKTRYAQKFQGRVTITWETSASTAFMDLSSLRSEDTAVYYCARGFTMVRGAPYYDGLDVWGQGTTVTISS VL: DIVMTQSPLSLPVSPGEPASISCRSSQSLLYSTGYNYLDWYLQKPGLSPQLLIYLGSIRASGVPDRFSGSGSGTDFTLSISRVEAEDVGIYYCMQALQTPTFGGGTKVEIK
9 | binds | 25A01 (antibody, V domains shown, Detected with anti-human IgG) VH: QVQLVQSEAEVKKPGASVKVSCKASGYIFTTFGLSWVRQAPGQGLEWMGRITTNNGNTIYERRFQGRVTMTIDTSTTTAYMEMRSLTSDDTAVYYCARDGAPQDHWGQGTLVTVSS VL: DIQMTQSPSSLSVSVGDRVIITCRASQDIRNSLAWFQQKPGKAPKSLIFAASSLQSGVPSKFRGSGFGTDFTLTITSLQPEDFATYYCQQYSSYPLTFGGGTKVEIK
10 | binds | 25F08 (antibody, V domains shown, Detected with anti-human IgG) VH: QVQLVQSGPEVKKPGASVKVSCQASGYTFTTYGINWVRQAPGQGLEWMGRISAYNGNTNYAQKFQGRVTMTTDTSTRTAYMEMSNLISDDTAVYYCARDGAPQDHWGQGTLITVSS VL: DIQMTQSPSSLSVSVGDRITITCRASQDISNSLAWFQQKPGKAPKSLIFAASSLQSGVPSKFSGSGSGTDFNFTISSLQPEDFATYYCQQYNSFPLTFGGGTKVEIK

Row | Binder | binding result
11 | 32A07 (antibody, V domains shown) VH: QVQLVQSGPEVRNPGASVRVSCKASGYTFTDYALHWVRQAPGQRLEWMGWIIVGNGKTRYAQKFQGRVTITWETSASTAFMDLSSLRSEDTAVYYCARGFTMVRGAPYYDGLDVWGQGTTVTISS VL: DIVMTQSPLSLPVTLGQPASISCRSSQSLIYSDGNTYLNWFQQRPGQSPRRLIYKVSNRDSGVPDRFSGSGSGTDFTLKISRVEAEDVGVYYCLQGTLWPITFGQGTRLEIK | no binding (tested: undiluted, concentration not given)
12 | 32E01 (antibody, V domains shown) VH: QVQLVQSGAEVRKPGASVKVSCKASGYTFTDYAIHWVRQAPGQRLEWMGWIIVGNGKTRYSQKFQGRVTITWETSASTAYMDLSSLRSEDTAVYYCARGFTMVRGAPYYDGMDVWGQGTTVTVSS VL: not shown | no binding (tested: undiluted, concentration not given)
13 | 27A03 (antibody, V domains shown) VH: EVQLVESGGGLVKPGGSLRLSCAASGFTFSTYSMNWVRQAPGKGLEWVSSISRSSSYIYYADSVKGRFTISRDNAKNSLSLQMNSLRAEDTAVYYCARGAAAGTDYWGQGTLVTVSS VL: not shown | no binding (tested: undiluted, concentration not given)
14 | 35A10 (antibody, V domains shown) VH: EVQLVESGGGLVKPGGSLRLSCAASGFTFSTYSMNWVRQAPGKGLEWVSSISRSSSYIYYADSVKGRFTISRDNAKNSLSLQMNSLRAEDTAVYYCARGAAAGTDYWGQGTLVTVSS VL: DIVMTQSPLSLPVTLGQPASISCRSSQSLIYSDGNTYLNWFQQRPGQSPRRLIYKVSNRDSGVPDRFSGSGSGTDFTLKISRVEAEDVGVYYCLQGTLWPITFGQGTRLEIK | no binding (tested: undiluted, concentration not given)
15 | 30G01 (antibody, V domains shown) VH: QVQLQESGPGLVKPSGTLSLTCAVSGGSISSSNWWSWVRQPPGKGLEWIGEIYHSGNTNYNPSLKSRVTISVDKSKNQFSLKLSSVTAADTAVYYCVRGYYYDSGTSWGYYYGMDVWGQGTTVTVSS VL: DIQMTQSPSSLSASVGDRVTITCRASQGISNYLAWFQQRPGRAPKSLIYAASSLQRGVPSKFSGSGSGTDFTLTISSLQPEDFATYYCQQYNSYPITFGQGTRLEIK | no binding (tested: undiluted, concentration not given)
